From PMC5554173

Assays:
[1] = spotting on 7H11 OADC plates; settings: glycan lost
[2] = glycan lost

B1: LprG (Rv1411c): LprG T231A (protein)
parent chain: MRTPRRHCRRIAVLAAVSIAATVVAGCSSGSKPSGGPLPDAKPLVEEATAQTKALKSAHMVLTVNGKIPGLSLKTLSGDLTTNPTAATGNVKLTLGGSDIDADFVVFDGILYATLTPNQWSDFGPAADIYDPAQVLNPDTGLANVLANFADAKAEGRDTINGQNTIRISGKVSAQAVNQIAPPFNATQPVPATVWIQETGDHQLAQAQLDRGSGNSVQMTLSKWGEKVQVTKPPVS
other: colony formation on solid medium [1]: no change

B2: LprG (Rv1411c): lprG A691G (T231A) (protein)
parent chain: MRTPRRHCRRIAVLAAVSIAATVVAGCSSGSKPSGGPLPDAKPLVEEATAQTKALKSAHMVLTVNGKIPGLSLKTLSGDLTTNPTAATGNVKLTLGGSDIDADFVVFDGILYATLTPNQWSDFGPAADIYDPAQVLNPDTGLANVLANFADAKAEGRDTINGQNTIRISGKVSAQAVNQIAPPFNATQPVPATVWIQETGDHQLAQAQLDRGSGNSVQMTLSKWGEKVQVTKPPVS
other: invasion and growth in macrophages [2]: no change
